Experimental findings from patent US20240368263A1 (PROMETHEUS BIOSCIENCES, published 2024) are described below.

Read-outs that look alike come from different tables or passages of the source.

Experiment [1] has as its target T1, cynomolgus TL1A (endogenous, cynomolgus whole blood) (cynomolgus monkey, UniProt G7PRK8 1-251).
T1 sequence: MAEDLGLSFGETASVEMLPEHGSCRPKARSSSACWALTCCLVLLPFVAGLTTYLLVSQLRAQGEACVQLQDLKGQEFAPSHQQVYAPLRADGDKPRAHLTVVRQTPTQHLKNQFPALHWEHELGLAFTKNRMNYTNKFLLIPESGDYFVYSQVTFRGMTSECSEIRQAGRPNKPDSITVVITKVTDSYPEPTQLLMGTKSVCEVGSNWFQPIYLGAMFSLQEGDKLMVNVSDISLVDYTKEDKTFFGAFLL
Kind of experiment: cell-based or functional assay.

The target of experiment [2] is T2, human TL1A (endogenous, human whole blood assay) (human, UniProt O95150 1-251, limits assumed).
T2 sequence (looked up): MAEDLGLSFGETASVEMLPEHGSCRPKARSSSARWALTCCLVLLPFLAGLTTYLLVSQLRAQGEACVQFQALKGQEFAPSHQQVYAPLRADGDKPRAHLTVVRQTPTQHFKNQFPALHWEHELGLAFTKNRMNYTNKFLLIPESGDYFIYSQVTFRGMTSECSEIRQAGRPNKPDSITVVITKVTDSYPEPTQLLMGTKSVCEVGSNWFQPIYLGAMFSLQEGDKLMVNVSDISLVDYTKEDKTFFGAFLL
Kind of experiment: cell-based or functional assay.

In experiment [3] the target is T2, human TL1A (endogenous, human whole …). Kind of experiment: cell-based or functional assay. This is another data set of the same source.
The target is the same in experiment [4]. The experiment in a line: cell-based or functional assay. The source holds these as a separate data set.
For experiment [5], the target named is T3, human TL1A (Fitzgerald, Prod. #30R-AT070) (human, UniProt O95150 72-251, limits assumed, biotinylated with EZ-Link Sulfo-NHS-LC-Biotin where used as soluble antigen).
T3 construct: also called TNFSF15; biotinylated human TL1A
T3 sequence (looked up): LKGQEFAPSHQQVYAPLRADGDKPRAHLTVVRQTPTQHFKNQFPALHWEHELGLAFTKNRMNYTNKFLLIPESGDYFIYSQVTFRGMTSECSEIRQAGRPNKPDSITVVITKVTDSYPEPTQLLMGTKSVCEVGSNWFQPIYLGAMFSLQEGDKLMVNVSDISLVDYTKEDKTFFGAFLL
The experiment in a line: capture lift hit at 200 pM b-TL1A, unmutated sequence.

Experiment [6] deals with T3, human TL1A (Fitzgerald, Prod. …). The experiment in a line: ELISA. (An ELISA detects its analyte on a solid surface through an enzyme-linked reagent.)

B1: murine 5C3D11 monoclonal antibody (antibody, V domains shown)
VH: EVQLQQSGAELVKPGASVKLSCTASGFDIQDTYMHWVKQRPEQGLEWIGRIDPASGHTKYDPKFQVKATITTDTSSNTAYLQLSSLTSEDTAVYYCSRSGGLPDVWGAGTTVTVSS
VL: QIVLSQSPAILSASPGEKVTMTCRASSSVSYMYWYQQKPGSSPKPWIYATSNLASGVPDRFSGSGSGTSYSLTISRVEAEDAATYYCQQWSGNPRTFGGGTKLEIK
For B1, the “Potency (IC50, nM), cynomolgus whole blood assay, mean” value in experiment [1] amounted to 0.18 nM. In addition, the “IC50, inhibition of IFN-γ production, human whole blood assay” value (from here on “IC50, inhibition of IFN-γ production”) in experiment [2] was 1.38 nM.

B2: clone 23, modified IgG1 / kappa (antibody)
heavy: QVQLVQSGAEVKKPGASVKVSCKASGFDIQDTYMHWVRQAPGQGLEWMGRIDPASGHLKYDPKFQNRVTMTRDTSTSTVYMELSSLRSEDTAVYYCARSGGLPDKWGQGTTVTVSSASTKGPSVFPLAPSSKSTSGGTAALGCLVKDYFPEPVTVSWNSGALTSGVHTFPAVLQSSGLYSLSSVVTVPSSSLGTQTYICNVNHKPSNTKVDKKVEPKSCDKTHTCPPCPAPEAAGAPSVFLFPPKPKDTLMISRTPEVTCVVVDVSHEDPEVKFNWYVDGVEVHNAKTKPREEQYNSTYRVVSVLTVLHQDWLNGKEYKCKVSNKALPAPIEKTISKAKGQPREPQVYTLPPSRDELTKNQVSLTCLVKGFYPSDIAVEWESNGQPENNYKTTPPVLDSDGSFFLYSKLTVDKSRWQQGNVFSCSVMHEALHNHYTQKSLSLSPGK
light: EIVLTQSPGTLSLSPGERATLSCRASSSVSYMYWYQQKPGQAPRLLIYATSNLASGIPDRFSGSGSGTDFTLTISRLEPEDFAVYYCQQWEGNPRTFGGGTKLEIKRTVAAPSVFIFPPSDEQLKSGTASVVCLLNNFYPREAKVQWKVDNALQSGNSQESVTEQDSKDSTYSLSSTLTLSKADYEKHKVYACEVTHQGLSSPVTKSFNRGEC
Turning to B2, the “Potency (IC50, nM), cynomolgus whole blood assay, mean” value in experiment [1] was found to be 0.72 nM. Also, the “Potency (IC50, nM), human whole blood assay, mean” value in experiment [3] worked out at 0.64 nM. For the same molecule, the “IC50, inhibition of IFN-γ production” value in experiment [4] came out at 0.41 nM.

B3: clone 14, modified IgG1 / kappa (antibody)
heavy: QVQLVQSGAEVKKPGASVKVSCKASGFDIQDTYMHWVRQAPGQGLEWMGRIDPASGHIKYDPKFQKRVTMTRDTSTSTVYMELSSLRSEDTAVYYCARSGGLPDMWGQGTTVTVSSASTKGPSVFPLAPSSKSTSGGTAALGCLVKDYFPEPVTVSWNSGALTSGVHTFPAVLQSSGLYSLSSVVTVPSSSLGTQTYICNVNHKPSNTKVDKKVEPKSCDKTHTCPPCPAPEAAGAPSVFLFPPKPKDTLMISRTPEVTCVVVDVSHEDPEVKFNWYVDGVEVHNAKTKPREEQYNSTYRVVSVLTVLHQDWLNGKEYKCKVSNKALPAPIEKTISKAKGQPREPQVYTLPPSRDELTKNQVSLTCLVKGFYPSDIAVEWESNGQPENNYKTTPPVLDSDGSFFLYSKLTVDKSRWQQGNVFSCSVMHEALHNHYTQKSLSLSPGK
light: EIVLTQSPGTLSLSPGERATLSCRASSSVSYMYWYQQKPGQAPRLLIYATSNLASGIPDRFSGSGSGTDFTLTISRLEPEDFAVYYCQQWQGNPRTFGGGTKLEIKRTVAAPSVFIFPPSDEQLKSGTASVVCLLNNFYPREAKVQWKVDNALQSGNSQESVTEQDSKDSTYSLSSTLTLSKADYEKHKVYACEVTHQGLSSPVTKSFNRGEC
Consider B3, for which the “Potency (IC50, nM), cynomolgus whole blood assay, mean” value in experiment [1] is 0.28 nM. Further, in experiment [3], the “Potency (IC50, nM), human whole blood assay, mean” value was determined as 0.3 nM. Besides, in experiment [4], the “IC50, inhibition of IFN-γ production” value is 0.19 nM.

B4: clone 34, modified IgG1 / kappa (antibody)
heavy: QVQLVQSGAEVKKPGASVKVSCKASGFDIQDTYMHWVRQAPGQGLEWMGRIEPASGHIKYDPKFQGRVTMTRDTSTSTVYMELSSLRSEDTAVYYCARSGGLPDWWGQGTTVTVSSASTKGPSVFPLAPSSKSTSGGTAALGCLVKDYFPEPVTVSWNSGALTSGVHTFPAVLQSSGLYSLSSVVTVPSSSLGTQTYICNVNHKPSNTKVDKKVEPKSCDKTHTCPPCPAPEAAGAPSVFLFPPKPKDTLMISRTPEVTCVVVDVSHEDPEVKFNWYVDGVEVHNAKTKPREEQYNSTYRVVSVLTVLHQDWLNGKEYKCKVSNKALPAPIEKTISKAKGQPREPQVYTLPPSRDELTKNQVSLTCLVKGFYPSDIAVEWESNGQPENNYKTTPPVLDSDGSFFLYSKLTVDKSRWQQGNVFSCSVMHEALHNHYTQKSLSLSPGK
light: EIVLTQSPGTLSLSPGERATLSCRASSSVSYMYWYQQKPGQAPRLLIYATSNLASGIPDRFSGSGSGTDFTLTISRLEPEDFAVYYCQQWEGNPRTFGGGTKLEIKRTVAAPSVFIFPPSDEQLKSGTASVVCLLNNFYPREAKVQWKVDNALQSGNSQESVTEQDSKDSTYSLSSTLTLSKADYEKHKVYACEVTHQGLSSPVTKSFNRGEC
In the case of B4, the “Potency (IC50, nM), cynomolgus whole blood assay, mean” value in experiment [1] amounted to 0.21 nM. For the same molecule, the “Potency (IC50, nM), human whole blood assay, mean” value in experiment [3] came out at 0.24 nM. In addition, the “IC50, inhibition of IFN-γ production” value in experiment [4] was found to be 0.18 nM.

B5: clone 53, modified IgG1 / kappa (antibody, V domains shown)
VH: QVQLVQSGAEVKKPGASVKVSCKASGFDIQDTYMHWVRQAPGQGLEWMGRIEPASGHLKYDPKFQERVTMTRDTSTSTVYMELSSLRSEDTAVYYCARSGGLPDKWGQGTTVTVSS
VL: EIVLTQSPGTLSLSPGERATLSCRASSSVSYMYWYQQKPGQAPRLLIYATSNLASGIPDRFSGSGSGTDFTLTISRLEPEDFAVYYCQQWEGNPRTFGGGTKLEIKR
In the case of B5, in experiment [1], the “Potency (IC50, nM), cynomolgus whole blood assay, mean” value was found to be 1.32 nM. In addition, the “Potency (IC50, nM), human whole blood assay, mean” value in experiment [3] is 0.59 nM. Also, the “fold greater potency towards human TL1A than cynomolgus TL1A, whole blood assays” value in experiment [2] was approximately 2 fold. The “IC50, inhibition of IFN-γ production” value in experiment [4] amounted to 0.39 nM.

B6: 1D1 anti-TL1A antibody (antibody, V domains shown)
VH: QVQLVQSGAEVKKPGASVKVSCKASGYDFTYYGISWVRQAPGQGLEWMGWISTYNGNTHYARMLQGRVTMTTDTSTRTAYMELRSLRSDDTAVYYCARENYYGSGAYRGGMDVWGQGTTVTVSS
VL: EIVLTQSPATLSLSPGERATLSCRASQSVSSYLAWYQQKPGQAPRLLIYDASNRATGIPARFSGSGSGTDFTLTISSLEPEDFAVYYCQQRSNWPWTFGQGTKVEIK
Turning to B6, the “Potency (IC50, nM), human whole blood assay, mean” value in experiment [3] is 0.27 nM.

B7: L8 (CDR graft) Fab (Fab, V domains shown)
VH: QVQLVQSGAEVKKPGASVKVSCKASGFDIQDTYMHWVRQAPGQGLEWMGRIDPASGHTKYDPKFQVRVTMTRDTSTSTVYMELSSLRSEDTAVYYCARSGGLPDVWGQGTTVTVSS
VL: EIVLTQSPGTLSLSPGERATLSCRASSSVSYMYWYQQKPGQAPRLLIYATSNLASGIPDRFSGSGSGTDFTLTISRLEPEDFAVYYCQQWSGNPRTFGGGTKLEIK
notes: Fab; also called CDR graft clone L8; CDR-grafted variant
For B7, the binding result in experiment [5] is given as “binds”.

B8: L3-4 (S92D) Fab (Fab, V domains shown)
VH: QVQLVQSGAEVKKPGASVKVSCKASGFDIQDTYMHWVRQAPGQGLEWMGRIDPASGHTKYDPKFQVRVTMTRDTSTSTVYMELSSLRSEDTAVYYCARSGGLPDVWGQGTTVTVSS
VL: EIVLTQSPGTLSLSPGERATLSCRASSSVSYMYWYQQKPGQAPRLLIYATSNLASGIPDRFSGSGSGTDFTLTISRLEPEDFAVYYCQQWDGNPRTFGGGTKLEIK
notes: Fab; also called 18-7 S92D light chain with 21-3 heavy chain
With B8, the binding result in experiment [6] is on record as “binds”.

B9: H3-7 (V102W) Fab (Fab, V domains shown)
VH: QVQLVQSGAEVKKPGASVKVSCKASGFDIQDTYMHWVRQAPGQGLEWMGRIDPASGHTKYDPKFQVRVTMTRDTSTSTVYMELSSLRSEDTAVYYCARSGGLPDWWGQGTTVTVSS
VL: EIVLTQSPGTLSLSPGERATLSCRASSSVSYMYWYQQKPGQAPRLLIYATSNLASGIPDRFSGSGSGTDFTLTISRLEPEDFAVYYCQQWSGNPRTFGGGTKLEIK
notes: Fab; also called 21-3 V102W heavy chain with 18-7 light chain
Regarding B9, in experiment [6], the binding result was “binds”.

B10: L3-4 (S92H) Fab (Fab, V domains shown)
VH: QVQLVQSGAEVKKPGASVKVSCKASGFDIQDTYMHWVRQAPGQGLEWMGRIDPASGHTKYDPKFQVRVTMTRDTSTSTVYMELSSLRSEDTAVYYCARSGGLPDVWGQGTTVTVSS
VL: EIVLTQSPGTLSLSPGERATLSCRASSSVSYMYWYQQKPGQAPRLLIYATSNLASGIPDRFSGSGSGTDFTLTISRLEPEDFAVYYCQQWHGNPRTFGGGTKLEIK
notes: Fab; also called 18-7 S92H light chain with 21-3 heavy chain
Consider B10, for which the binding result in experiment [6] was “binds”.

B11: L3-4 (S92E) Fab (Fab, V domains shown)
VH: QVQLVQSGAEVKKPGASVKVSCKASGFDIQDTYMHWVRQAPGQGLEWMGRIDPASGHTKYDPKFQVRVTMTRDTSTSTVYMELSSLRSEDTAVYYCARSGGLPDVWGQGTTVTVSS
VL: EIVLTQSPGTLSLSPGERATLSCRASSSVSYMYWYQQKPGQAPRLLIYATSNLASGIPDRFSGSGSGTDFTLTISRLEPEDFAVYYCQQWEGNPRTFGGGTKLEIK
notes: Fab; also called 18-7 S92E light chain with 21-3 heavy chain
As to B11, the binding result in experiment [6] is “binds”.

B12: 12835 (humanized 5C3D11) antibody, IgG format (antibody, V domains shown)
VH: QVQLVQSGAEVKKPGASVKLSCKASGFDIQDTYMHWVRQAPGQGLEWMGRIDPASGHTKYDPKFQVRVTMTTDTSTSTVYMELSSLRSEDTAVYYCSRSGGLPDVWGQGTTVTVSS
VL: EIVLTQSPGTLSLSPGERVTMSCRASSSVSYMYWYQQKPGQAPRPWIYATSNLASGVPDRFSGSGSGTDYTLTISRLEPEDFAVYYCQQWSGNPRTFGGGTKLEIK
Regarding B12, in experiment [2], the “IC50, inhibition of IFN-γ production” value amounted to 9.28 nM.

B13: L3-4 (S92N) Fab (Fab, V domains shown)
VH: QVQLVQSGAEVKKPGASVKVSCKASGFDIQDTYMHWVRQAPGQGLEWMGRIDPASGHTKYDPKFQVRVTMTRDTSTSTVYMELSSLRSEDTAVYYCARSGGLPDVWGQGTTVTVSS
VL: EIVLTQSPGTLSLSPGERATLSCRASSSVSYMYWYQQKPGQAPRLLIYATSNLASGIPDRFSGSGSGTDFTLTISRLEPEDFAVYYCQQWNGNPRTFGGGTKLEIK
notes: Fab; also called 18-7 S92N light chain with 21-3 heavy chain
Turning to B13, the binding result in experiment [6] is “binds”.

B14: L3-4 (S92Q) Fab (Fab, V domains shown)
VH: QVQLVQSGAEVKKPGASVKVSCKASGFDIQDTYMHWVRQAPGQGLEWMGRIDPASGHTKYDPKFQVRVTMTRDTSTSTVYMELSSLRSEDTAVYYCARSGGLPDVWGQGTTVTVSS
VL: EIVLTQSPGTLSLSPGERATLSCRASSSVSYMYWYQQKPGQAPRLLIYATSNLASGIPDRFSGSGSGTDFTLTISRLEPEDFAVYYCQQWQGNPRTFGGGTKLEIK
notes: Fab; also called 18-7 S92Q light chain with 21-3 heavy chain
Regarding B14, the binding result in experiment [6] is on record as “binds”.
